# Assay results as given in patent US20140294898A1 (published 2014).
# Positions of bridges follow the written chain, without caps; N, C: chain ends. Non-standard residues stand in square brackets, D forms with d. NMeNle = CCCC[C@H](NC)C(=O)O; NMeS = CN[C@@H](CO)C(=O)O; NMeA = CN[C@@H](C)C(=O)O; Sar = CNCC(=O)O
# Target: T1, hPDL1(19-239)-TVMV-His (human, UniProt Q9NZQ7 19-239)
# T1 construct: The construct name says 19-239, the running text says amino acids 18-239; Expressed in HEK293T cells; also called PD-L1-His; PD-L1-TVMV-His
# T1 sequence (Q9NZQ7 other isoform, or with tags, fused parts or gaps limits assumed): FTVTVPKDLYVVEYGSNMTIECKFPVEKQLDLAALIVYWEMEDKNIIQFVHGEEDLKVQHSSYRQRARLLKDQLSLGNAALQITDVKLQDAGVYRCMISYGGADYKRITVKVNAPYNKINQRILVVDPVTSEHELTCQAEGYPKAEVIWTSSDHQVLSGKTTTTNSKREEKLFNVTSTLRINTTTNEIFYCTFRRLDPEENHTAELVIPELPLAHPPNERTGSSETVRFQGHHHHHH
# Test: HTRF competition, PD-1-Ig (20 nM) binding to human PD-L1-His (10 nM)
# Method: All binding studies were performed in an HTRF assay buffer consisting of dPBS supplemented with 0.1% (w/v) bovine serum albumin and 0.05% (v/v) Tween-20. […] PD-L1 fusion proteins from either human, cynomologous macaques, or mouse were used. HTRF detection was achieved using europium crypate-labeled anti-Ig monoclonal antibody (1 nM final) and allophycocyanin (APC) labeled anti-His monoclonal antibody (20 nM final). Antibodies were diluted in HTRF detection buffer and 5 μl was dispensed on top of binding reaction. The reaction was allowed to equilibrate for 30 minutes and signal (665 nm/620 nm ratio) was obtained using an EnVision fluorometer. […]
# HTRF Experiments were performed essentially as outlined supra. Variant macrocyclic peptides were created as outlined herein.
row,Binder,IC50
1,"{CH2CO}-F[NMeA]NPHL[Sar]WSI[NMeNle][NMeNle]RCG-NH2 (thioether N-14; SMILES CCCC[C@H]1C(=O)N(C)[C@@H](CCCC)C(=O)N[C@@H](CCCNC(=N)N)C(=O)N[C@H](C(=O)NCC(N)=O)CSCC(=O)N[C@@H](Cc2ccccc2)C(=O)N(C)[C@@H](C)C(=O)N[C@@H](CC(N)=O)C(=O)N2CCC[C@H]2C(=O)N[C@@H](Cc2c[nH]cn2)C(=O)N[C@@H](CC(C)C)C(=O)N(C)CC(=O)N[C@@H](Cc2c[nH]c3ccccc23)C(=O)N[C@@H](CO)C(=O)N[C@@H]([C@@H](C)CC)C(=O)N1C, macrocyclic peptide cyclized via the ClAc moiety with the downstream cysteine) [Compound No. 62]",475 nM
2,"{CH2CO}-F[NMeA]NPHL[Sar]WSL[NMeNle][NMeNle]RCG-NH2 (thioether N-14; SMILES CCCC[C@H]1C(=O)N(C)[C@@H](CCCC)C(=O)N[C@@H](CCCNC(=N)N)C(=O)N[C@H](C(=O)NCC(N)=O)CSCC(=O)N[C@@H](Cc2ccccc2)C(=O)N(C)[C@@H](C)C(=O)N[C@@H](CC(N)=O)C(=O)N2CCC[C@H]2C(=O)N[C@@H](Cc2c[nH]cn2)C(=O)N[C@@H](CC(C)C)C(=O)N(C)CC(=O)N[C@@H](Cc2c[nH]c3ccccc23)C(=O)N[C@@H](CO)C(=O)N[C@@H](CC(C)C)C(=O)N1C, macrocyclic peptide cyclized via the ClAc moiety with the downstream cysteine) [Compound No. 63]",3660 nM

# These reach a lower IC50. Values come first.
row,IC50,Binder
1,43 nM,"{CH2CO}-F[NMeA]NPHL[Sar]WAW[NMeNle][NMeNle]ACG-NH2 (thioether N-14; SMILES CCCC[C@H]1C(=O)N(C)[C@@H](CCCC)C(=O)N[C@@H](C)C(=O)N[C@H](C(=O)NCC(N)=O)CSCC(=O)N[C@@H](Cc2ccccc2)C(=O)N(C)[C@@H](C)C(=O)N[C@@H](CC(N)=O)C(=O)N2CCC[C@H]2C(=O)N[C@@H](Cc2c[nH]cn2)C(=O)N[C@@H](CC(C)C)C(=O)N(C)CC(=O)N[C@@H](Cc2c[nH]c3ccccc23)C(=O)N[C@@H](C)C(=O)N[C@@H](Cc2c[nH]c3ccccc23)C(=O)N1C, macrocyclic peptide cyclized via the ClAc moiety with the downstream cysteine) [Compound No. 60]"
2,31 nM,"{CH2CO}-F[NMeA]NPHL[Sar]WSM[NMeNle][NMeNle]RCG-NH2 (thioether N-14; SMILES CCCC[C@H]1C(=O)N(C)[C@@H](CCCC)C(=O)N[C@@H](CCCNC(=N)N)C(=O)N[C@H](C(=O)NCC(N)=O)CSCC(=O)N[C@@H](Cc2ccccc2)C(=O)N(C)[C@@H](C)C(=O)N[C@@H](CC(N)=O)C(=O)N2CCC[C@H]2C(=O)N[C@@H](Cc2c[nH]cn2)C(=O)N[C@@H](CC(C)C)C(=O)N(C)CC(=O)N[C@@H](Cc2c[nH]c3ccccc23)C(=O)N[C@@H](CO)C(=O)N[C@@H](CCSC)C(=O)N1C, macrocyclic peptide cyclized via the ClAc moiety with the downstream cysteine) [Compound No. 61]"
3,24 nM,"FANPHLXWSWXXRCG (N-terminal chloroacetyl (ClAc) on residue 1 cyclized as thioether with Cys14; N-methyl-Ala (mAla) at 2; Dab (2,4-diaminobutyric acid, written X) at 7; N-methyl-norleucine (mNle, written X) at 11 and 12; C-terminal amide (NH2), macrocyclic peptide cyclized via the ClAc moiety with the downstream cysteine) [Compound No. 52]"
4,13 nM,"{CH2CO}-F[NMeA]NPHL[NMeS]WSW[NMeNle][NMeNle]RCG-NH2 (thioether N-14; SMILES CCCC[C@H]1C(=O)N(C)[C@@H](CCCC)C(=O)N[C@@H](CCCNC(=N)N)C(=O)N[C@H](C(=O)NCC(N)=O)CSCC(=O)N[C@@H](Cc2ccccc2)C(=O)N(C)[C@@H](C)C(=O)N[C@@H](CC(N)=O)C(=O)N2CCC[C@H]2C(=O)N[C@@H](Cc2c[nH]cn2)C(=O)N[C@@H](CC(C)C)C(=O)N(C)[C@@H](CO)C(=O)N[C@@H](Cc2c[nH]c3ccccc23)C(=O)N[C@@H](CO)C(=O)N[C@@H](Cc2c[nH]c3ccccc23)C(=O)N1C, macrocyclic peptide cyclized via the ClAc moiety with the downstream cysteine) [Compound No. 56]"
